Where a chain is given by its changes, count along the chain named. Numbers in names are those of the source. Like-named read-outs stand apart in the source and are kept apart here.
How the values were obtained:
[1] = target: T1, SIRPγ extracellular domain (human, UniProt Q9P1W8 29-360); test: SPR Biacore T200, antibody captured on Protein A chip
T1 construct: also called hSIRPγ - ECD

[2] = target: T2, SIRPβ extracellular domain (human, UniProt O00241 30-371); test: as above
T2 construct: also called hSIRPβ - ECD
T2 chain: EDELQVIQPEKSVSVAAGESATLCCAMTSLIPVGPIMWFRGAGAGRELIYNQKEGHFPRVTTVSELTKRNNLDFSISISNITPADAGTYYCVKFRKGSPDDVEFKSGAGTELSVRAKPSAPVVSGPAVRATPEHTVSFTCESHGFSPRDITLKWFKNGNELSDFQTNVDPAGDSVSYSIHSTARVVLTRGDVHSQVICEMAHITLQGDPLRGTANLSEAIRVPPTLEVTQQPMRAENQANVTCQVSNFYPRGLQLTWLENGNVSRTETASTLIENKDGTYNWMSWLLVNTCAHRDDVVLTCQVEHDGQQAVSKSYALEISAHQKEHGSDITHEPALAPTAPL

[3] = target: T3, extracellular domain of SIRPα v1-DLN (e.g. SIRPα1) (human, UniProt P78324 31-373); test: as above
T3 construct: also called hSIRPα - ECD (v1)

[4] = target: T1, SIRPγ extracellular domain; test: SPR Biacore T200, antibody on Protein A chip, 1:1 Langmuir fit
[5] = target: T2, SIRPβ extracellular domain; test: as above
FcγR2B [6] = target: T4, FcγR2B (human, UniProt P31994 43-310); test: cell binding, FcγR-engineered HEK293 cells
T4 construct: whole, on cells
T4 sequence (looked up): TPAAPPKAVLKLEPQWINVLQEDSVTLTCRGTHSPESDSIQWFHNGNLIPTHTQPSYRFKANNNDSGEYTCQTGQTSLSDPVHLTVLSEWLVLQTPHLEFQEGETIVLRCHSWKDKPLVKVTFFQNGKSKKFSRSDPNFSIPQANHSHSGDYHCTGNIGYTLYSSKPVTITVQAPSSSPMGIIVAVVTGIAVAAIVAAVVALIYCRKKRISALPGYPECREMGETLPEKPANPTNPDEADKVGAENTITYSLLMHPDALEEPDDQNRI

FcγR1 (CD64) [7] = target: T5, FcγR1 (CD64) (human, UniProt P12314 16-374); test: cell binding, FcγR-engineered HEK293 cells
T5 construct: whole, on cells

FcγR3A (CD16aV158) [8] = target: T6, FcγR3A (CD16aV158) (human, UniProt P08637 17-254); test: cell binding, FcγR-engineered HEK293 cells
T6 construct: whole, on cells

[9] = target: T7, rat SIRPα on CHO-K1 cells (rat, UniProt P97710 32-509); test: flow cytometry on Rat SIRPα-CHO-K1 cells
T7 construct: whole, on cells; also called rat SIRPα-CHO-K1
T7 sequence (looked up): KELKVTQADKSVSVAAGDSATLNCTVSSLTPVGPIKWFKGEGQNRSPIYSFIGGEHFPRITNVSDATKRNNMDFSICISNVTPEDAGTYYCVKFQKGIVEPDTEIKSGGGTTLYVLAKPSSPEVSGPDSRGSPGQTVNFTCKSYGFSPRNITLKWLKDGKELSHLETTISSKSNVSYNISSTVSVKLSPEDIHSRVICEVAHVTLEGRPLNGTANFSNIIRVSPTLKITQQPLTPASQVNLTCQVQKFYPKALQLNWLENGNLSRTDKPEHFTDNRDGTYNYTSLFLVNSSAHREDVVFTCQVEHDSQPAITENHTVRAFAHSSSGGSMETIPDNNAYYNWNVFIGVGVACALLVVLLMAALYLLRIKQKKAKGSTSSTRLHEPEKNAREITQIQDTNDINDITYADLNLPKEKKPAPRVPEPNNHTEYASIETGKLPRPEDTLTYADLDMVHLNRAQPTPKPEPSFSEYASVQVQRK

FcγR3A (CD16aF158) = target: T8, FcγR3A (CD16aF158) (human, UniProt P08637 17-254); test: cell binding, FcγR-engineered HEK293 cells
T8 construct: whole, on cells

FcγR2B [10] = target: T4, FcγR2B; test: cell binding, FcγR-engineered HEK293 cells; remark: listed apart in the source
FcγR1 (CD64) [11] = target: T5, FcγR1 (CD64); test: cell binding, FcγR-engineered HEK293 cells; remark: listed apart in the source
FcγR2A (CD32aR131) = target: T9, FcγR2A (CD32aR131) (human, UniProt P12318 34-317); test: cell binding, FcγR-engineered HEK293 cells
T9 construct: whole, on cells
T9 sequence (looked up): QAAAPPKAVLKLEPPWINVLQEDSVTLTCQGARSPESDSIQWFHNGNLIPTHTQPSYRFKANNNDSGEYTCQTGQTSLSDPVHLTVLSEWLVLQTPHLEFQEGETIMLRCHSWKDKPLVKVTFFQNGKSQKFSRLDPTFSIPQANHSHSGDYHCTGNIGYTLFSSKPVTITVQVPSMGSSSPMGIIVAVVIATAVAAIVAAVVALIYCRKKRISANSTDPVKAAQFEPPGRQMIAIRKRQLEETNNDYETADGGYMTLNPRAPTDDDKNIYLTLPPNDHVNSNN

FcγR3A (CD16aV158) [12] = target: T6, FcγR3A (CD16aV158); test: cell binding, FcγR-engineered HEK293 cells; remark: listed apart in the source
FcγR2A (CD32aH131) = target: T10, FcγR2A (CD32aH131) (human, UniProt P12318 34-317); test: cell binding, FcγR-engineered HEK293 cells
T10 construct: whole, on cells
T10 sequence (looked up): T9 sequence (looked up) with R134H

T1 sequence (Q9P1W8 29-360 limits assumed): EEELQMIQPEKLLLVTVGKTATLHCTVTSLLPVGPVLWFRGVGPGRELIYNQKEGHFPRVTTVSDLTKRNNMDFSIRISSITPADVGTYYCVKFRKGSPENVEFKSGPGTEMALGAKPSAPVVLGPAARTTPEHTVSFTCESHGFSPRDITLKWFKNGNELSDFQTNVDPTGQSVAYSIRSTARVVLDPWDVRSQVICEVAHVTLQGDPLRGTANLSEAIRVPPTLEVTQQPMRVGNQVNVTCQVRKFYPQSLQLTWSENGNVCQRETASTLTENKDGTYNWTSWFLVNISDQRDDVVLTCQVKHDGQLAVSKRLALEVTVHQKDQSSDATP
T6 sequence (P08637 17-254 F176V): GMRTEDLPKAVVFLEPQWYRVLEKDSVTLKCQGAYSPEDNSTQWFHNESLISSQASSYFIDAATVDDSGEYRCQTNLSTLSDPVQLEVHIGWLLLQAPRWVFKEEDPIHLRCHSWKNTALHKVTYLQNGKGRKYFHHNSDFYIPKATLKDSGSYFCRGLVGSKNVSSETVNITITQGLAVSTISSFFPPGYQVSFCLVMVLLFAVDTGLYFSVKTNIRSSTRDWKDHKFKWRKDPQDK
T5 sequence (P12314 16-374): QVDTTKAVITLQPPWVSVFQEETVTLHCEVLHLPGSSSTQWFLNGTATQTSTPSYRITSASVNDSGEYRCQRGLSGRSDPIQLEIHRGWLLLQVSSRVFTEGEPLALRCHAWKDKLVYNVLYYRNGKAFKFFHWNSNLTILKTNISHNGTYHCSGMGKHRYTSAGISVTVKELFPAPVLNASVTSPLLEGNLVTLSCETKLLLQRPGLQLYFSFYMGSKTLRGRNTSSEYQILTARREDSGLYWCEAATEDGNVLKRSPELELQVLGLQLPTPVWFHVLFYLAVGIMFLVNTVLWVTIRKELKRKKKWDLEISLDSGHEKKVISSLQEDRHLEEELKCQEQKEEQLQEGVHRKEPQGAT
T8 sequence (P08637 17-254): as the sequence (P08637 17-254 F176V) above, with V160F counted along it

B1: SIRPAB-11-K322A (antibody, human IgG1, kappa)
light: DIQMTQSPSSVSASVGDRVTITCRASQGISSWLAWYQQKPGKAPKLLIYAASNLQSGVPSRFSGSGSGTDFTLTISSLQPEDFATYYCQQGASFPITFGGGTKVEIKRTVAAPSVFIFPPSDEQLKSGTASVVCLLNNFYPREAKVQWKVDNALQSGNSQESVTEQDSKDSTYSLSSTLTLSKADYEKHKVYACEVTHQGLSSPVTKSFNRGEC
heavy: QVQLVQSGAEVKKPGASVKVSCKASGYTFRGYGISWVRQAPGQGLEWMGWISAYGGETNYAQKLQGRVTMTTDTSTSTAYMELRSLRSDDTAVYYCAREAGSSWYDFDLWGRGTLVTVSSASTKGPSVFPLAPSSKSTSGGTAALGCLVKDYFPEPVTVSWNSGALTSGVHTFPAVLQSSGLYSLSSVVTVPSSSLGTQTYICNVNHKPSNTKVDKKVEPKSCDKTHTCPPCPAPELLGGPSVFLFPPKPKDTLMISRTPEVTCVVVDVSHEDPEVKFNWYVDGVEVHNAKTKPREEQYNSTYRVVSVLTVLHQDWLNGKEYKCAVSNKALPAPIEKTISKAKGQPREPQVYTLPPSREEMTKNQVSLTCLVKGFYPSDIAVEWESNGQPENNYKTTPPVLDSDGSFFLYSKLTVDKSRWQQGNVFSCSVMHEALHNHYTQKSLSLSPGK
notes: human IgG1 with K322A (EU numbering); also called SIRPAB-11-IgG1-K322A; SIRPAB-11-K322A-AlexaFluor647
- Kd [1]: 0.0101 nM
- koff [1]: 0.000188 s⁻¹
- kon [1]: 1.71e+07 M⁻¹ s⁻¹
- Kd [2]: 12.1 nM
- koff [2]: 0.000614 s⁻¹
- kon [2]: 50600 M⁻¹ s⁻¹
- Kd [3]: 0.0152 nM
- koff [3]: 0.000118 s⁻¹
- kon [3]: 7.75e+06 M⁻¹ s⁻¹
- Kd [4]: 0.0632 nM
- Kd [5]: 0.38 nM
- EC50 (FcγR2B [6]): 2710 nM
- EC50 (FcγR1 (CD64) [7]): 0.79 nM
- EC50 (FcγR3A (CD16aV158) [8]): 142 nM
- binding result [9]: no binding (tested: 100 nM (Log nM 2))
- EC50 (FcγR3A (CD16aF158)): 1200 nM
- EC50 (FcγR2B [10]): 2480 nM
- EC50 (FcγR1 (CD64) [11]): 0.79 nM
- EC50 (FcγR2A (CD32aR131)): 194 nM
- EC50 (FcγR3A (CD16aV158) [12]): 795 nM
- EC50 (FcγR2A (CD32aH131)): 200 nM

From patent US20200102387A1 (CELGENE, published 2020)
